Here are results for 2 molecules from US20210032351A1 (XDCEXPLORER SHANGHAI, published 2021).

The EC50 is the concentration at which the effect is half-maximal. The low end stands for an effect from little substance, the high end for a need for much substance.

Test [1] deals with T1, human wild-type EGFR protein on the cell surface (human, UniProt P00533 25-1210).
T1 construct: whole, on cells; Endogenous on A431, HEB, U87MG cells and normal human primary hepatocytes; transfected on CHOk1-EGFR cells; The cell is named under assay; also called A431; HEB
The experiment in a line: FACS on CHOk1-EGFR cells. The method, then: The cells are washed twice with the HBSS buffer and are counted, and then the cells are diluted with the HBSS buffer to 2×10⁶ cells/ml, added with 1% goat serum blocking solution, with the percentage being the mass percentage, and incubated on ice for 30 minutes, and then centrifugally washed twice with the HBSS buffer. The collected cells are suspended to 2×10⁶ cells/mL with an FACS buffer (HBSS+1% BSA, with the percentage being the mass percentage), added to a 96-well FACS reaction plate at 100 μL/well, then added with 100 μL/well of the purified EGFRvIII antibody (samples to be tested) obtained in example 2, and incubated on ice for 2 hours. The plate is centrifugally washed twice with the FACS buffer, added with 100 μL/well of a fluorescence (Alexa 488) labeled secondary antibody (purchased from Invitrogen), and then incubated on ice for 1 hour. The plate is centrifugally washed 3 times with the FACS buffer, added with 100 μL/well of a fixing solution [4% (v/v) paraformaldehyde] for suspending the cells, and centrifugally washed twice with the FACS buffer after 10 minutes. The cells are suspended in 100 μL of the FACS buffer, and the results are detected and analyzed by FACS (FACS Calibur, purchased from BD). Data analysis is performed by using the software (CellQuest) to obtain the mean fluorescence intensity (MFI) of the cells. Data is further analyzed by using the software (GraphPad Prism5) to perform data fitting and calculate EC50. […] A431 cells (human epidermal cell cancer cell lines) have a large amount of wild-type EGFR protein expressed on the surface thereof. […] U87MG cells (human glioma cell lines) have a small amount of wild-type EGFR protein expressed on the surface thereof, while HEB cells (human glioma cell lines) have a high level of wild-type EGFR protein expression on the surface thereof.

In test [2] the target is T2, human EGFRvIII-hFc protein (human, UniProt P00533 25-645).
T2 construct: extracellular domain; also called immunogen A; hFc-tagged EGFRvIII protein; not shown: human IgG Fc fragment (hFc) of the pCpC vector
The experiment in a line: ELISA, EGFRvIII-hFc coated. The method, then:
The purified immunogen A (EGFRvIII-hFc) obtained in example 1 (for the preparation method, see step (I) in example 1) is diluted with PBS to a final concentration of 1.0 μg/mL, and then added to a 96-well ELISA plate at 100 μl/well. The plate is sealed with a plastic film and incubated at 4° C. overnight. The next day, the plate is washed twice with a plate washing solution [PBS+0.01% (v/v) Tween20], and added with a blocking solution [PBS+0.01% (v/v) Tween20+1% (w/w) BSA] for blocking 2 hours at room temperature. […] The plate is incubated for 2 hours at 37° C., and then washed 3 times with the plate washing solution [PBS+0.01% (v/v) Tween20]. The plate is added with an HRP (horseradish peroxidase) labeled secondary antibody (purchased from Sigma), incubated at 37° C. for 2 hours, and then washed 3 times with the plate washing solution [PBS+0.01% (v/v) Tween20]. The plate is added with 100 μl of TMB substrate/well, incubated for 30 minutes at room temperature, and then added with 100 μl of stopping solution (1.0N HCl)/well. A450 nm value is read using an ELISA plate reader (SpectraMax 384plus, purchased from Molecular Device), and the results are shown in FIG. 11 and table 19.
(In an ELISA, binding on a coated surface is turned into a signal by an enzyme label.)

The target of test [3] is T3, human EGFRvIII protein on the cell surface (human, UniProt P00533 25-1210).
T3 construct: whole, on cells; the cell line is named under assay; also called hEGFRvIII; U87MG-hEGFRvIII
The experiment in a line: FACS on CHOk1-EGFRvIII cells. The method, then: The desired cells are subjected to an expanded culture to 90% confluence in a T-75 cell culture flask; the medium is sucked out, and the cells are washed twice with a HBSS buffer (Hanks Balanced Salt Solution) (purchased from Invitrogen), and then treated with an enzyme-free cell dissociation solution (Versene solution: purchased from Life Technology) and collected. The cells are washed twice with the HBSS buffer and are counted, and then the cells are diluted with the HBSS buffer to 2×10⁶ cells/ml, added with 1% goat serum blocking solution, with the percentage being the mass percentage, and incubated on ice for 30 minutes, and then centrifugally washed twice with the HBSS buffer. The collected cells are suspended to 2×10⁶ cells/mL with an FACS buffer (HBSS+1% BSA, with the percentage being the mass percentage), added to a 96-well FACS reaction plate at 100 μL/well, then added with 100 μL/well of the purified EGFRvIII antibody (samples to be tested) obtained in example 2, and incubated on ice for 2 hours. The plate is centrifugally washed twice with the FACS buffer, added with 100 μL/well of a fluorescence (Alexa 488) labeled secondary antibody (purchased from Invitrogen), and then incubated on ice for 1 hour. The plate is centrifugally washed 3 times with the FACS buffer, added with 100 μL/well of a fixing solution [4% (v/v) paraformaldehyde] for suspending the cells, and centrifugally washed twice with the FACS buffer after 10 minutes. The cells are suspended in 100 μL of the FACS buffer, and the results are detected and analyzed by FACS (FACS Calibur, purchased from BD). Data analysis is performed by using the software (CellQuest) to obtain the mean fluorescence intensity (MFI) of the cells. Data is further analyzed by using the software (GraphPad Prism5) to perform data fitting and calculate EC50. […] A431 cells (human epidermal cell cancer cell lines) have a large amount of wild-type EGFR protein expressed on the surface thereof.

The target in test [4] is T2, human EGFRvIII-hFc protein. Description: ELISA, EGFRvIII-hFc coated; weak binding, maximum OD450 0.79 against 3.03 for wild type and 0.08 for hIgG. The method, then:
The plate is incubated for 2 hours at 37° C., and then washed 3 times with the plate washing solution [PBS+0.01% (v/v) Tween20]. The plate is added with an HRP (horseradish peroxidase) labeled secondary antibody (purchased from Sigma), incubated at 37° C. for 2 hours, and then washed 3 times with the plate washing solution [PBS+0.01% (v/v) Tween20]. The plate is added with 100 μl of TMB substrate/well, incubated for 30 minutes at room temperature, and then added with 100 μl of stopping solution (1.0N HCl)/well. A450 nm value is read using an ELISA plate reader (SpectraMax 384plus, purchased from Molecular Device), and the results are shown in FIG. 11 and table 19.

The target in test [5] is T4, pep01.
T4 peptide: LEEKKGNYVVTDHGSCK(Biotin)
Description: peptide dot matrix ELISA.

For test [6], the target named is T5, pep02.
T5 peptide: EEKKGNYVVTDHGSCVK(Biotin)
The experiment in a line: peptide dot matrix ELISA.

The target of test [7] is T6, pep03.
T6 peptide: EKKGNYVVTDHGSCVRK(Biotin)
The experiment in a line: peptide dot matrix ELISA.

The target of test [8] is T7, pep08 (cysteine pairing not given here).
T7 peptide: YVVTDHGSCVRACGADK(Biotin)
The experiment in a line: peptide dot matrix ELISA.

For test [9], the target named is T8, pep09 (cysteine pairing not given here).
T8 peptide: VVTDHGSCVRACGADSK(Biotin)
The experiment in a line: peptide dot matrix ELISA.

The target of test [10] is T9, pep10 (cysteine pairing not given here).
T9 peptide: VTDHGSCVRACGADSYK(Biotin)
The experiment in a line: peptide dot matrix ELISA.

Test [11] concerns the target T10, pep11 (cysteine pairing not given here).
T10 peptide: TDHGSCVRACGADSYEK(Biotin)
Description: peptide dot matrix ELISA.

Test [12] addresses T11, pep12 (cysteine pairing not given here).
T11 peptide: DHGSCVRACGADSYEMK(Biotin)
Description: peptide dot matrix ELISA.

Test [13] concerns the target T12, pep17.
T12 peptide: VRACGADSYEMEEDGVK(Biotin)
Description: peptide dot matrix ELISA.

Test [14] deals with T13, pep19.
T13 peptide: ACGADSYEMEEDGVRKK(Biotin)
Description: peptide dot matrix ELISA.

Test [15] addresses T14, pep22.
T14 peptide: ADSYEMEEDGVRKCKKK(Biotin)
Description: peptide dot matrix ELISA.

Test [16] has as its target T15, pep23 (cysteine pairing not given here).
T15 peptide: DSYEMEEDGVRKCKKCK(Biotin)
Description: peptide dot matrix ELISA.

Test [17] addresses T16, pep24 (cysteine pairing not given here).
T16 peptide: SYEMEEDGVRKCKKCEK(Biotin)
Description: peptide dot matrix ELISA.

For test [18], the target named is T17, pep25 (cysteine pairing not given here).
T17 peptide: YEMEEDGVRKCKKCEGK(Biotin)
Description: peptide dot matrix ELISA.

In test [19] the target is T18, pep29 (cysteine pairing not given here).
T18 peptide: EDGVRKCKKCEGPCRKK(Biotin)
Description: peptide dot matrix ELISA.

Test [20] addresses T19, pep30 (cysteine pairing not given here).
T19 peptide: DGVRKCKKCEGPCRKVK(Biotin)
The experiment in a line: peptide dot matrix ELISA.

Test [21] addresses T20, pep31 (cysteine pairing not given here).
T20 peptide: GVRKCKKCEGPCRKVCK(Biotin)
Description: peptide dot matrix ELISA.

Test [22] concerns the target T21, pep32 (cysteine pairing not given here).
T21 peptide: VRKCKKCEGPCRKVCNK(Biotin)
Description: peptide dot matrix ELISA.

Test [23] has as its target T22, pep34 (cysteine pairing not given here).
T22 peptide: KCKKCEGPCRKVCNGIK(Biotin)
The experiment in a line: peptide dot matrix ELISA.

Ends that are not written are not given here. * marks the point of attachment. Biotin = O=C1N[C@H]2[C@H](CS[C@H]2CCCCC(=O)*)N1

B1: c75G7C6-4 (antibody, human IgG1, V domains shown)
VH: EVQLQQSGPELVKPGASVKIPCKASGYTFTDYNMDWVKQSHGKSLEWIGDINPNNGDTIYNQKFKGKATLTVDKSSSTAYMELRSLTSEDTAVYYCARGDYSGYYPVYYAMDYWGQGTSVTVSS
VL: ENVLTQSPAIMSASPGEKVTMTCRASSSVSSSYLHWYQQKSGASPKLWIFSTSNLAAGVPARFSGSGSGTSYSLTVSSVEAEDAATYYCQQYSGYPLTFGAGTKLELK
notes: Chimeric 75G7C6 with DG of heavy chain CDR3 mutated to SG; Human IgG1/kappa; also called mutant chimeric antibody DG/SG
For the molecule B1, the “Maximum mean fluorescence intensity” value in test [1] came out at 8970 MFI; in [3], 52600 MFI. In test [2], the “Maximum OD450 value” came to 0.79 OD450. The EC50 is 24 nM in [3] and 7.94 nM in test [4].

B2: Chimeric antibody 64F1 (antibody, V domains shown)
VH: QVQLQQSGAELARPGASVKMSCKASGYTFSSYTMHWAKQRPGQGLEWIGYINPSSGYTKYNQKFKDKATLTADKSSSTAYMQLSSLTSEDSIVYYCARGGGRGFAYWGQGTLVTVSA
VL: QIVLTQSPAIMSASPGERVTMTCSASSSVSYMYWYQQKPGSSPRLLIYDTSNLASGVPVRFSGSGSGTSYSLTISRVEAEDAATYYCQQWSSYSLTFGAGTKLELK
notes: also called 64F1F8 chimeric
As to B2, the ELISA signal in [5], in test [6], in test [7], in test [8], in test [9] and in [10] was 0.05 each time. Also, the ELISA signal was determined as 0.05 in [11]; 0.05 in test [12]; 0.05 in [13]; 0.05 in test [14]; 0.08 in test [15]; 0.07 in test [16]. Also, the ELISA signal in test [17], in [18], in test [19], in [20], in test [21] and in [22] was 0.06 throughout. Also, in test [23], the ELISA signal turned out to be 0.07.
